Test results taken from paper PMC11417369, “DNA sequence and chromatin differentiate sequence-specific transcription factor binding in the human malaria parasite Plasmodium falciparum”.

Tests used:
Assay in all cases: gcPBM; about 25 ug protein; PBS, 1% milk, 0.2 mg/ml BSA, salmon testes DNA, 0.03% Triton X-100
Conditions in all cases: tags: N-terminal GST (pGEX-4T-1), kept; label: surface-attached array probe
AP2-HC D1 = target: T1, AP2-HC D1 (Plasmodium falciparum, UniProt Q8IKR9 1316-1374)
T1 sequence: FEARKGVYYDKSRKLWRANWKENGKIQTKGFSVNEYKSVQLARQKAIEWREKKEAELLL

AP2-LT D1 = target: T2, AP2-LT D1 (Plasmodium falciparum, UniProt Q8IAM1 2520-2577)
T2 sequence: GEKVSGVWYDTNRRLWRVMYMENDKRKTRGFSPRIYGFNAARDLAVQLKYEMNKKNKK

PF3D7_0420300 D1 = target: T3, PF3D7_0420300 D1 (Plasmodium falciparum, UniProt Q8I1N6 1956-2015)
T3 sequence: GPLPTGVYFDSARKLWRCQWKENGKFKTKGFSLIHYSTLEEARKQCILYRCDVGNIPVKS

| Binder | binding signal (AP2-HC D1) | binding signal (AP2-LT D1) | binding signal (PF3D7_0420300 D1) |
| --- | --- | --- | --- |
| CACACA_site2431 (dsDNA) DNA 1: AACAAACACAGACACACACACACACCCAAATGATTA DNA 2: TAATCATTTGGGTGTGTGTGTGTGTCTGTGTTTGTT | 11.7 ln median PBM intensity, better of two orientations | 10.8 ln median PBM intensity, better of two orientations | – |
| CACACA_site1724 (dsDNA) DNA 1: TATATACGCAAACACACACACACATACACCCACATA DNA 2: TATGTGGGTGTATGTGTGTGTGTGTTTGCGTATATA | 11.9 ln median PBM intensity, better of two orientations | 10.4 ln median PBM intensity, better of two orientations | – |
| CACACA_site8345 (dsDNA) DNA 1: AATACCCAAGGACACACACACACATATATATATATA DNA 2: TATATATATATATGTGTGTGTGTGTCCTTGGGTATT | 11.8 ln median PBM intensity, better of two orientations | 10.8 ln median PBM intensity, better of two orientations | – |
| CACACA_negctrl_site1674 (dsDNA) DNA 1: TATTTTAATTATAAATTTAAAAAAAAAAAGAAAAAA DNA 2: TTTTTTCTTTTTTTTTTTAAATTTATAATTAAAATA | 9.42 ln median PBM intensity, better of two orientations | 8.52 ln median PBM intensity, better of two orientations | – |
| CACACA_negctrl_site22 (dsDNA) DNA 1: TTTTAAGATATAAATTAATACTTATATATATAGATA DNA 2: TATCTATATATATAAGTATTAATTTATATCTTAAAA | 9.27 ln median PBM intensity, better of two orientations | 8.45 ln median PBM intensity, better of two orientations | – |
| CACACA_negctrl_site1027 (dsDNA) DNA 1: ATTAAAAAGACAAAAAAAAAATTTTTTTTTTTTTTT DNA 2: AAAAAAAAAAAAAAATTTTTTTTTTGTCTTTTTAAT | 9.26 ln median PBM intensity, better of two orientations | 8.44 ln median PBM intensity, better of two orientations | – |
| CACACA_site4553 (dsDNA) DNA 1: AAAAAAAGATTATACACACACATATATAAACATACA DNA 2: TGTATGTTTATATATGTGTGTGTATAATCTTTTTTT | 10.7 ln median PBM intensity, better of two orientations | – | 10.1 ln median PBM intensity, better of two orientations |
| CACACA_site2305 (dsDNA) DNA 1: TTCCCCCCCAGACACACACACACATACATACCACAT DNA 2: ATGTGGTATGTATGTGTGTGTGTGTCTGGGGGGGAA | 12.1 ln median PBM intensity, better of two orientations | – | 10.4 ln median PBM intensity, better of two orientations |
| CACACA_site365 (dsDNA) DNA 1: CACCCCCACAGACACACACACACACCCACATATATA DNA 2: TATATATGTGGGTGTGTGTGTGTGTCTGTGGGGGTG | 10.8 ln median PBM intensity, better of two orientations | – | 10.4 ln median PBM intensity, better of two orientations |
| CACACA_site7658 (dsDNA) DNA 1: AATAAAAAGGAACACACACACACACGGATATAAATA DNA 2: TATTTATATCCGTGTGTGTGTGTGTTCCTTTTTATT | 11.7 ln median PBM intensity, better of two orientations | – | 10.5 ln median PBM intensity, better of two orientations |
| CACACA_negctrl_site1599 (dsDNA) DNA 1: TTTTTAAATTATTTGAAAAAAAGAAAATTATAAACA DNA 2: TGTTTATAATTTTCTTTTTTTCAAATAATTTAAAAA | 9.26 ln median PBM intensity, better of two orientations | 8.26 ln median PBM intensity, better of two orientations | – |
| CACACA_negctrl_site709 (dsDNA) DNA 1: TGAAAAAAAAAAAAAAAAAAAAGAAAAAAAAAAAAA DNA 2: TTTTTTTTTTTTTCTTTTTTTTTTTTTTTTTTTTCA | 8.7 ln median PBM intensity, better of two orientations | 8.21 ln median PBM intensity, better of two orientations | – |
| CACACA_site6350 (dsDNA) DNA 1: CACAAACAGACAAACACACACACACGGACATACATA DNA 2: TATGTATGTCCGTGTGTGTGTGTTTGTCTGTTTGTG | 10.6 ln median PBM intensity, better of two orientations | 10.2 ln median PBM intensity, better of two orientations | – |
| CACACA_site4184 (dsDNA) DNA 1: TGAATAAATAAACACACACACATATATATATCTGTA DNA 2: TACAGATATATATATGTGTGTGTGTTTATTTATTCA | 10.8 ln median PBM intensity, better of two orientations | 10.1 ln median PBM intensity, better of two orientations | – |
| CACACA_site2430 (dsDNA) DNA 1: CAAACAAACAGACACACACACACACCCAAAAATGAT DNA 2: ATCATTTTTGGGTGTGTGTGTGTGTCTGTTTGTTTG | 12.2 ln median PBM intensity, better of two orientations | 10.6 ln median PBM intensity, better of two orientations | – |
| CACACA_negctrl_site1538 (dsDNA) DNA 1: TTTTTTTTTAAGATGAAGATCAATATATAAATATAT DNA 2: ATATATTTATATATTGATCTTCATCTTAAAAAAAAA | 8.98 ln median PBM intensity, better of two orientations | 8.23 ln median PBM intensity, better of two orientations | – |
| CACACA_site6215 (dsDNA) DNA 1: AAAAAAAAAAGACACACACACACATAAATATAAATA DNA 2: TATTTATATTTATGTGTGTGTGTGTCTTTTTTTTTT | 12.2 ln median PBM intensity, better of two orientations | – | 10.3 ln median PBM intensity, better of two orientations |
| CACACA_site4721 (dsDNA) DNA 1: AACATTATAGGACACACACACACATATATATATATA DNA 2: TATATATATATATGTGTGTGTGTGTCCTATAATGTT | 11.9 ln median PBM intensity, better of two orientations | 10.7 ln median PBM intensity, better of two orientations | – |
| CACACA_negctrl_site934 (dsDNA) DNA 1: AATTTTATTTAATTTTTTTGGGAAATGATAAAATTT DNA 2: AAATTTTATCATTTCCCAAAAAAATTAAATAAAATT | 9.22 ln median PBM intensity, better of two orientations | 8.39 ln median PBM intensity, better of two orientations | – |
| CACACA_site8410 (dsDNA) DNA 1: AAAAAATCACAACACACACACACACTAATAAAAAAA DNA 2: TTTTTTTATTAGTGTGTGTGTGTGTTGTGATTTTTT | 12.3 ln median PBM intensity, better of two orientations | 10.7 ln median PBM intensity, better of two orientations | – |
| CACACA_negctrl_site803 (dsDNA) DNA 1: TTTTGTAAAAAAAAAAAAAAAGGAAAATTAAAATAA DNA 2: TTATTTTAATTTTCCTTTTTTTTTTTTTTTACAAAA | 9.16 ln median PBM intensity, better of two orientations | 8.33 ln median PBM intensity, better of two orientations | – |
| CACACA_negctrl_site1509 (dsDNA) DNA 1: TTTAAAAAATGTTATATTATATAATTAAAAAAAAAA DNA 2: TTTTTTTTTTAATTATATAATATAACATTTTTTAAA | 9.35 ln median PBM intensity, better of two orientations | 8.38 ln median PBM intensity, better of two orientations | – |
| CACACA_negctrl_site1564 (dsDNA) DNA 1: AAAATGTCCCGTAGAAAATAAATTTATTACGCAATA DNA 2: TATTGCGTAATAAATTTATTTTCTACGGGACATTTT | 9.41 ln median PBM intensity, better of two orientations | – | 9.06 ln median PBM intensity, better of two orientations |
| CACACA_site362 (dsDNA) DNA 1: CACCCACACCAACACACACACATATATATATATATA DNA 2: TATATATATATATATGTGTGTGTGTTGGTGTGGGTG | 11.7 ln median PBM intensity, better of two orientations | 10.8 ln median PBM intensity, better of two orientations | – |
| CACACA_negctrl_site358 (dsDNA) DNA 1: TGTTTCCAAAAAAAAAAAAAAAAAAAAAAAAAAAAA DNA 2: TTTTTTTTTTTTTTTTTTTTTTTTTTTTTGGAAACA | 8.96 ln median PBM intensity, better of two orientations | 8.01 ln median PBM intensity, better of two orientations | – |
| CACACA_site4689 (dsDNA) DNA 1: ATAACCTAATAATACACACACATGAATATATATAAT DNA 2: ATTATATATATTCATGTGTGTGTATTATTAGGTTAT | 10.4 ln median PBM intensity, better of two orientations | 9.77 ln median PBM intensity, better of two orientations | – |
| CACACA_site7754 (dsDNA) DNA 1: TAAAATAAAACAAACACACACACACGGACACAAAAA DNA 2: TTTTTGTGTCCGTGTGTGTGTGTTTGTTTTATTTTA | 11.9 ln median PBM intensity, better of two orientations | – | 10.4 ln median PBM intensity, better of two orientations |
| CACACA_site5576 (dsDNA) DNA 1: AAAAAAAAAAAACACACACACACACCGACACATACA DNA 2: TGTATGTGTCGGTGTGTGTGTGTGTTTTTTTTTTTT | 12.5 ln median PBM intensity, better of two orientations | 10.6 ln median PBM intensity, better of two orientations | – |
| CACACA_site7363 (dsDNA) DNA 1: AAAAAAAAAAGACACACACACACACGGACACATACA DNA 2: TGTATGTGTCCGTGTGTGTGTGTGTCTTTTTTTTTT | 11.9 ln median PBM intensity, better of two orientations | 10.2 ln median PBM intensity, better of two orientations | – |
